Molecular target: LGR6 (UniProt Q9HBX8)
Experiment: cell-based or functional assay

Sequence of UniProt Q9HBX8 (Q9HBX8 25-967): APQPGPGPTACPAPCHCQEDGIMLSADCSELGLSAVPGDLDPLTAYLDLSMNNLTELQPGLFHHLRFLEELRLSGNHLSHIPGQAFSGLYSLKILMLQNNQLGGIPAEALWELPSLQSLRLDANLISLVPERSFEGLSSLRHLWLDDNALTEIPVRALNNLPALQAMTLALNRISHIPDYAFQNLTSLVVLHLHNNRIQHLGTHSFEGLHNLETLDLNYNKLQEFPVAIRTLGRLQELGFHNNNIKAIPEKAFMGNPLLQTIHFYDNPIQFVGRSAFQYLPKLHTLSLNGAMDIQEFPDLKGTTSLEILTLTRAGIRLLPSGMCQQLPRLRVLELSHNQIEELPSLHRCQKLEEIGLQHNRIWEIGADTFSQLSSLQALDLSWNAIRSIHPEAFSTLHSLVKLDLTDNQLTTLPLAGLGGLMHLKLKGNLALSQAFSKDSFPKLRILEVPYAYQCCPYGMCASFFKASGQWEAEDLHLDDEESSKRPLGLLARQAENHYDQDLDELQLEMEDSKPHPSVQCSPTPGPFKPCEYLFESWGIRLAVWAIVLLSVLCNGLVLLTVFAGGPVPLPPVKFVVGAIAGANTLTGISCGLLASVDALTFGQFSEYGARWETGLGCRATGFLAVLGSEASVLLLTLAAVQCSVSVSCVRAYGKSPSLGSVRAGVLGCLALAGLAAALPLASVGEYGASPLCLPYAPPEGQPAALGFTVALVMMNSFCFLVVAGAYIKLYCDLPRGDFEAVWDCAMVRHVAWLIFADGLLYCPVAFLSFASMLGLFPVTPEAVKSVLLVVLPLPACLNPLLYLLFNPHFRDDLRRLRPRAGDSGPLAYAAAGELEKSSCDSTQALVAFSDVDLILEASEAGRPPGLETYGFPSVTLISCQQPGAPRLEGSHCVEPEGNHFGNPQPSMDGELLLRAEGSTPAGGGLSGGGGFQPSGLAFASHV

Substance: MBP-RSPO1-MMAE (from UniProt Q2MKA7 21-145)
- IC50 of cell killing on LGR6-overexpressing HEK-LGR6-2 cells (10 days exposure, CCK-8 viability): 0.08 nM
- fold potency of killing, HEK-LGR6-2 cells against empty vector-transfected HEK-pcDNA cells: 12 fold
